Patent US20260250371A1 (ULTRAGENYX PHARMACEUTICAL, published 2026)
“And” between values parts separate entries of the source, which are not always exact repeats. Equal entries are not always repeated. Where two headings read alike, the source gives them in different places.

T1: recombinant human FGF23 (R179Q) (human, UniProt Q9GZV9 25-251)
T1 construct: also called rhFGF23(R179Q); hFGF23(R179Q)
T1 sequence (looked up): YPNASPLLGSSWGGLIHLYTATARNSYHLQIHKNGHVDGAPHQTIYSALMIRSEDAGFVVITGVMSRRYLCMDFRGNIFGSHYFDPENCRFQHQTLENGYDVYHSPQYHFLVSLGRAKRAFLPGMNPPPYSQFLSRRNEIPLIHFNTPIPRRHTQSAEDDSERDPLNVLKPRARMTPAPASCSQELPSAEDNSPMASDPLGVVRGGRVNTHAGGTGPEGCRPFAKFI

T2: cynomolgus monkey (Macaca fascicularis) FGF23 (R179Q) (cynomolgus monkey (Macaca fascicularis), UniProt Q9GZV9 25-251 (human entry), limits assumed)
T2 construct: also called cynoFGF23; cynoFGF23(R179Q)
T2 chain: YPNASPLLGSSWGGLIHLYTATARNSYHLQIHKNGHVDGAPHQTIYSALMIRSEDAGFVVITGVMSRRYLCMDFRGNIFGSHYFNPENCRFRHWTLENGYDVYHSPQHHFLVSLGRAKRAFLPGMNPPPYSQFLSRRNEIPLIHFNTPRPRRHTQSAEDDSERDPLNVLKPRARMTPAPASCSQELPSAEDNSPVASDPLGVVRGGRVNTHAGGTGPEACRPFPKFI


Key:
[1] = target: T1, recombinant human FGF23 (R179Q); test: SPR, antibody captured on hIgG chip, rhFGF23(R179Q) analyte
[2] = target: T1, recombinant human FGF23 (R179Q); test: SPR, antibody captured on hIgG chip, human FGF23 analyte
[3] = target: T1, recombinant human FGF23 (R179Q); test: SPR, antibody captured on hIgG chip, rhFGF23(R179Q) analyte; remark: listed apart in the source
[4] = target: T2, cynomolgus monkey (Macaca fascicularis) …; test: SPR, antibody captured on hIgG chip, cynoFGF23(R179Q) analyte, single cycle kinetics
Description: Binding kinetics of 13 antibody variants shown in Table 19 were characterized against cynomolgus monkey (Macaca fascicularis) FGF23 (R179Q) (i.e., “cynoFGF23”) (SEQ ID NO: 372). Antibody variants were expressed at small scale (3 ml) and screened by SPR analysis at a single concentration (100 nM). Experimental setup of SPR analysis for CRC: SPR device—8K+; chip preparation—CM5 hIgG chip: channels—1-8; immobilization concentration—1.5 ug/ml; immobilization method—capture; flow rate—5 μl/min; contact time—60 s; running buffer—1×HBS-EP+pH 7.4; temperature—20° C.: flow rate—50 μl/min; association time—120 s; dissociation time—1800 s; antigen—cynoFGF23(R179Q): top concentration—0.1 μM, 9-pt 3-fold Single Cycle Kinetics.

[5] = target: the molecule itself; test: X-ray crystal structure of the hFGF23(R179Q):burosumab Fab complex
Description: To further characterize the human FGF23-burosumab interaction, x-ray crystallographic study was carried out using fully glycosylated human FGF23 (R179Q) from HEK293S cell supernatant in complex with burosumab Fab fragments also expressed in HEK293S cells. Burosumab IgG heavy and light chains were subjected to papain digestion to separate Fc and Fab fragments, then Protein A to isolate Fab fragments of approximately 50 kDa, according to routine methods (Pierce™ Fab Preparation Kit, Thermo Scientific™, cat #!44985). Fully glycosylated human FGF23 (R179Q) and burosumab Fab fragments were incubated on ice for more than one hour (1:0.8 molar ratio) and the stable complex was isolated by size exclusion chromatography (SEC) followed by evaluation by SDS-PAGE. SEC fractions containing the complex were pooled, concentrated, and stored at −80° C.
Diffraction data was collected from a single crystal at the Advanced Photon Source (APS) synchrotron and processed using autoPROC (autoProc, XDS, POINTLESS, AIMLESS, CCP4, and STARANISO) (see Vonrhein C, Flensburg C, Keller P, Sharff A, Smart O, Paciorek W, Womack T, Bricogne G. Data processing and analysis with the autoPROC toolbox. Acta Crystallogr D Biol Crystallogr. 2011 April; 67(Pt 4):293-302. [doi:10.1107/S0907444911007773]). […]

Kd [1] | Ratio (variant antibody KD/burosumab KD) [1] | koff [1] | kon [1] | KD ratio (variant antibody KD/burosumab KD) [2] | Kd [2] [pM] | Kd [3] [pM] | Ratio (variant antibody KD/burosumab KD) [3] | SA (surface activity) [3] [%] | koff [3] [s⁻¹] | kon [3] [M⁻¹ s⁻¹] | KD ratio (variant antibody KD/burosumab KD) [4] | Kd [4] [pM] | SA (surface activity) [1] [%] | Binder | binding result [5]
7.53 pM and 7.59 pM and 8.07 pM | 3 | 8.91e-05 s⁻¹ and 9.8e-05 s⁻¹ and 9.45e-05 s⁻¹ | 1.2e+07 M⁻¹ s⁻¹ (2×) and 1.3e+07 M⁻¹ s⁻¹ | 3 | 7.59 | 7.59 | 3 | 91.6 | 9.8e-05 | 1.29e+07 | 3 | 6.93 | – | UGX202 (antibody, human IgG1, kappa, V domains shown, also called HC:S59E, LC:N92Y; S59E/N92Y) VH: QVQLVQSGAEVKKPGASVKVSCKASGYTFTNHYMHWVRQAPGQGLEWMGIINPISGSTENAQKFQGRVTMTRDTSTSTVYMELSSLRSEDTAVYYCARDIVDAFDFWGQGTMVTVSS VL: AIQLTQSPSSLSASVGDRVTITCRASQGISSALVWYQQKPGKAPKLLIYDASSLESGVPSRFSGSGSGTDFTLTISSLQPEDFATYYCQQFYDYFTFGPGTKVDIKR | –
6.58 pM and 5.77 pM | – | 7.03e-05 s⁻¹ and 6.31e-05 s⁻¹ | 1.07e+07 M⁻¹ s⁻¹ and 1.09e+07 M⁻¹ s⁻¹ | 4 | 5.77 | 5.77 | 4 | 89.5 | 6.31e-05 | 1.09e+07 | 3 | 6.86 | – | UGX144 (antibody, human IgG1, kappa, V domains shown, also called LC:Y94D; Y94D) VH: QVQLVQSGAEVKKPGASVKVSCKASGYTFTNHYMHWVRQAPGQGLEWMGIINPISGSTSNAQKFQGRVTMTRDTSTSTVYMELSSLRSEDTAVYYCARDIVDAFDFWGQGTMVTVSS VL: AIQLTQSPSSLSASVGDRVTITCRASQGISSALVWYQQKPGKAPKLLIYDASSLESGVPSRFSGSGSGTDFTLTISSLQPEDFATYYCQQFNDDFTFGPGTKVDIKR | –
11.3 pM and 12.4 pM and 11.5 pM | 2 | 0.000145 s⁻¹ and 0.000134 s⁻¹ | 1.3e+07 M⁻¹ s⁻¹ (2×) and 1.1e+07 M⁻¹ s⁻¹ | 2 | 11.5 | 11.5 | 2 | 81.4 | 0.000145 | 1.26e+07 | 1 | 22.9 | – | UGX203 (antibody, human IgG1, kappa, V domains shown, also called HC:S59E, LC:S52D; S59E/S52D) VH: QVQLVQSGAEVKKPGASVKVSCKASGYTFTNHYMHWVRQAPGQGLEWMGIINPISGSTENAQKFQGRVTMTRDTSTSTVYMELSSLRSEDTAVYYCARDIVDAFDFWGQGTMVTVSS VL: AIQLTQSPSSLSASVGDRVTITCRASQGISSALVWYQQKPGKAPKLLIYDADSLESGVPSRFSGSGSGTDFTLTISSLQPEDFATYYCQQFNDYFTFGPGTKVDIKR | –
4.07 pM | 5 | 6.25e-05 s⁻¹ | 1.53e+07 M⁻¹ s⁻¹ | 5 | 4.07 | 4.07 | 5 | 93.9 | 6.25e-05 | 1.53e+07 | 9 | 2.57 | 93.9 | UGX205 (antibody, human IgG1, kappa, V domains shown, also called HC:S59E, LC:Y94D; S59E/Y94D) VH: QVQLVQSGAEVKKPGASVKVSCKASGYTFTNHYMHWVRQAPGQGLEWMGIINPISGSTENAQKFQGRVTMTRDTSTSTVYMELSSLRSEDTAVYYCARDIVDAFDFWGQGTMVTVSS VL: AIQLTQSPSSLSASVGDRVTITCRASQGISSALVWYQQKPGKAPKLLIYDASSLESGVPSRFSGSGSGTDFTLTISSLQPEDFATYYCQQFNDDFTFGPGTKVDIKR | –
13.3 pM and 14 pM and 18.3 pM | – | 0.000186 s⁻¹ and 0.000121 s⁻¹ and 0.000138 s⁻¹ | 1.4e+07 M⁻¹ s⁻¹ and 8.64e+06 M⁻¹ s⁻¹ and 7.57e+06 M⁻¹ s⁻¹ | 2 | 13.3 | 13.3 | 2 | 90.4 | 0.000186 | 1.4e+07 | 1 | 16 | – | UGX204 (antibody, human IgG1, kappa, V domains shown, also called HC:S59E, LC:S52E; S59E/S52E) VH: QVQLVQSGAEVKKPGASVKVSCKASGYTFTNHYMHWVRQAPGQGLEWMGIINPISGSTENAQKFQGRVTMTRDTSTSTVYMELSSLRSEDTAVYYCARDIVDAFDFWGQGTMVTVSS VL: AIQLTQSPSSLSASVGDRVTITCRASQGISSALVWYQQKPGKAPKLLIYDAESLESGVPSRFSGSGSGTDFTLTISSLQPEDFATYYCQQFNDYFTFGPGTKVDIKR | –
6.62 pM and 7.87 pM and 10.9 pM | – | 5.72e-05 s⁻¹ and 4.92e-05 s⁻¹ and 8.37e-05 s⁻¹ | 8.64e+06 M⁻¹ s⁻¹ and 6.25e+06 M⁻¹ s⁻¹ and 7.69e+06 M⁻¹ s⁻¹ | 3 | 7.87 | 7.87 | 3 | 108 | 4.92e-05 | 6.25e+06 | 3 | 7.16 | – | UGX206 (antibody, human IgG1, kappa, V domains shown, also called HC:S59E, LC:Y94E; S59E/Y94E) VH: QVQLVQSGAEVKKPGASVKVSCKASGYTFTNHYMHWVRQAPGQGLEWMGIINPISGSTENAQKFQGRVTMTRDTSTSTVYMELSSLRSEDTAVYYCARDIVDAFDFWGQGTMVTVSS VL: AIQLTQSPSSLSASVGDRVTITCRASQGISSALVWYQQKPGKAPKLLIYDASSLESGVPSRFSGSGSGTDFTLTISSLQPEDFATYYCQQFNDEFTFGPGTKVDIKR | –
– | – | – | – | – | – | – | – | – | – | – | – | – | – | human FGF23 (R179Q) (ligand, UniProt Q9GZV9 25-251, looked up, fully glycosylated (from HEK293S cells), also called hFGF23(R179Q); rhFGF23(R179Q)) YPNASPLLGSSWGGLIHLYTATARNSYHLQIHKNGHVDGAPHQTIYSALMIRSEDAGFVVITGVMSRRYLCMDFRGNIFGSHYFDPENCRFQHQTLENGYDVYHSPQYHFLVSLGRAKRAFLPGMNPPPYSQFLSRRNEIPLIHFNTPIPRRHTQSAEDDSERDPLNVLKPRARMTPAPASCSQELPSAEDNSPMASDPLGVVRGGRVNTHAGGTGPEGCRPFAKFI | binds
